In article PMC8541144, “Synthesis, Characterization and In Vitro Evaluation of Hybrid Monomeric Peptides Suited for Multimodal Imaging by PET/OI: Extending the Concept of Charge—Cell Binding Correlation” (Pharmaceuticals, 2021):

Tests used:
[1] = LogD determination: partition between 1-octanol and phosphate buffer pH 7.4
Protocol: In the following, the lipophilicity of the labeled conjugates was investigated to get a first idea of the potential excretion pathway of the agents during an in vivo application. The logD values were determined by partition experiments between n-octanol and aqueous solution at pH 7.4.
The mixtures were intensively shaken for 5 min on a vibrating plate. After subsequent centrifugation at 13,000 rpm for 5 min, 125 µL were taken from each phase and measured in a γ-counter. The logD values were calculated from three or four independent experiments, each performed in triplicate.

[2] = target: T1, GRPR (Homo sapiens, UniProt P30550); experiment: Competitive displacement assay on stably GRPR-transfected HEK-293 cells, [125I]I-Tyr4-bombesin as competitor; format: binding; conditions: GRPR-expressing HEK cells, mean ± SD
T1 construct: host or cells: HEK-293 (HEK-GRPR), stably transfected
Protocol: Each compound was evaluated at least three times, each experiment being performed in triplicate. […] The respective cells were harvested and re-suspended in the binding buffer to give a cell concentration of 2 × 10^6/mL. […] Using a Millipore MultiScreen disposable punch and a Millipore MultiScreen punch kit, the filters of the well plate were collected in γ-counter tubes separately and measured by γ-counting.

T1 sequence (P30550 whole entry, species assumed): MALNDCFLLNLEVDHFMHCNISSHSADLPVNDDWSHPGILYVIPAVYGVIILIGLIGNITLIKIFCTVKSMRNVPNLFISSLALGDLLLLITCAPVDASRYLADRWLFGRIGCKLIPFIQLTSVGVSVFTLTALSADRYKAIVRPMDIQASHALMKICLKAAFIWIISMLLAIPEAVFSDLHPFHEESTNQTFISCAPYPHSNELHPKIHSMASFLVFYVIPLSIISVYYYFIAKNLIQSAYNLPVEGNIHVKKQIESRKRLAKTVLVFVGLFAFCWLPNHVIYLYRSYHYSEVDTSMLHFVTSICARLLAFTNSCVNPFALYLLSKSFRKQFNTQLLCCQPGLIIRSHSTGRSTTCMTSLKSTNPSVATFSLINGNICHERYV

CSCC[C@H](NC(=O)[C@H](CC(C)C)NC(=O)[C@H](Cc1c[nH]cn1)NC(=O)CNC(=O)[C@@H](NC(=O)[C@H](C)NC(=O)[C@H](Cc1c[nH]c2ccccc12)NC(=O)[C@H](CCC(N)=O)NC(=O)CCOCCOCCOCCOCCNC(=O)CCCN1C(=O)CC(SC[C@H](NC(=O)CNC(=O)CC[C@H](C(=O)O)N2CCN(CC(=O)O)CCN(CC(=O)O)CC2)C(N)=O)C1=O)C(C)C)C(N)=O (some centres unmarked) [10 a, BBN7-14-NODA-GA]
logD [1]: -3.78 ± 0.04 | IC50 [2]: 19.1 ± 1.44 nM
